One protein from PMC9731866 (The Journal of Biological Chemistry, 2022) can be followed below.

The data set deals with the molecule itself. Briefly: SEC-MALS; low concentration (1 mg/ml); Superdex 200 10/300 GL, 24 °C, 10 mM Hepes pH 7.4, 200 mM NaCl, 5 mM β-ME; N counts the units (heterodimers or heterotetramers) in the oligomer. For orientation: In gel filtration, larger molecules generally elute earlier.

B1: αMγ heterodimer of HsIDH3 (α-Q139A with γ) (complex, human)
chain 1: TGGVQTVTLIPGDGIGPEISAAVMKIFDAAKAPIQWEERNVTAIQGPGGKWMIPSEAKESMDKNKMGLKGPLKTPIAAGHPSMNLLLRKTFDLYANVRPCVSIEGYKTPYTDVNIVTIRENTEGEYSGIEHVIVDGVVASIKLITEGASKRIAEFAFEYARNNHRSNVTAVHKANIMRMSDGLFLQKCREVAESCKDIKFNEMYLDTVCLNMVQDPSQFDVLVMPNLYGDILSDLCAGLIGGLGVTPSGNIGANGVAIFESVHGTAPDIAGKDMANPTALLLSAVMMLRHMGLFDHAARIEAACFATIKDGKSLTKDLGGNAKCSDFTEEICRRVKDLD
chain 2: FSEQTIPPSAKYGGRHTVTMIPGDGIGPELMLHVKSVFRHACVPVDFEEVHVSSNADEEDIRNAIMAIRRNRVALKGNIETNHNLPPSHKSRNNILRTSLDLYANVIHCKSLPGVVTRHKDIDILIVRENTEGEYSSLEHESVAGVVESLKIITKAKSLRIAEYAFKLAQESGRKKVTAVHKANIMKLGDGLFLQCCREVAARYPQITFENMIVDNTTMQLVSRPQQFDVMVMPNLYGNIVNNVCAGLVGGPGLVAGANYGHVYAVFETATRNTGKSIANKNIANPTATLLASCMMLDHLKLHSYATSIRKAVLASMDNENMHTPDIGGQGTTSEAIQDVIRHIRVINGRAVEA
notes: α subunit of human IDH3 (HsIDH3), Q139A; γ subunit of human IDH3 (HsIDH3); One α and one γ chain; the heterodimer is the unit that associates into the (αMγ)2 heterotetramer; also called α_(Q139A)γ; mutant αγ heterodimer; source: E. coli BL21 (DE3) Codon-Plus, co-expressed from pQlinkN-α-γ-tev-His6, purified (Ni-NTA, TEV cleavage, gel filtration); not shown: His6, C-terminal, cleaved
For orientation: stoichiometry N means a count of units in the complex or per binding partner. Turning to B1, the “stoichiometry N” value was determined as 2.
